Measured values taken from patent US20070031418A1 (published 2007).

B1: humanized anti-trkC agonist antibody A5 (antibody, V domains shown)
VH: QVQLVQSGAEVKKPGASVKVSCKASGYTFTSYRIHWVRQAPGQGLEWMGEIYPSNARTNYNEKFKSRVTMTRDTSTSTVYMELSSLRSEDTAVYYCARKYYYGNTRRSWYFDVWGQGTTVTVS
VL: DIQMTQSPSSLSASVGDRVTITCRASESIDNYGISFLAWYQQKPGKAPKLLIYAASNRGSGVPSRFSGSGSGTDFTFTISSLQPEDIATYYCQQSKTVPRTFGQGTKLEIKR

Key:
[1] = target: trkC receptor of embryonic rat trigeminal neurons (rat) (UniProt Q03351); test: cell-based or functional assay
[2] = target: trkC receptor in stable trkC expressing CHO cells; test: cell-based or functional assay
[3] = target: T1, human trkC (human, UniProt Q16288 32-429, limits assumed); test: BIAcore analysis (SPR); format not stated
T1 construct: also called htrkC

Sequence of trkC receptor of embryonic rat trigeminal neurons (rat) (Q03351 32-864): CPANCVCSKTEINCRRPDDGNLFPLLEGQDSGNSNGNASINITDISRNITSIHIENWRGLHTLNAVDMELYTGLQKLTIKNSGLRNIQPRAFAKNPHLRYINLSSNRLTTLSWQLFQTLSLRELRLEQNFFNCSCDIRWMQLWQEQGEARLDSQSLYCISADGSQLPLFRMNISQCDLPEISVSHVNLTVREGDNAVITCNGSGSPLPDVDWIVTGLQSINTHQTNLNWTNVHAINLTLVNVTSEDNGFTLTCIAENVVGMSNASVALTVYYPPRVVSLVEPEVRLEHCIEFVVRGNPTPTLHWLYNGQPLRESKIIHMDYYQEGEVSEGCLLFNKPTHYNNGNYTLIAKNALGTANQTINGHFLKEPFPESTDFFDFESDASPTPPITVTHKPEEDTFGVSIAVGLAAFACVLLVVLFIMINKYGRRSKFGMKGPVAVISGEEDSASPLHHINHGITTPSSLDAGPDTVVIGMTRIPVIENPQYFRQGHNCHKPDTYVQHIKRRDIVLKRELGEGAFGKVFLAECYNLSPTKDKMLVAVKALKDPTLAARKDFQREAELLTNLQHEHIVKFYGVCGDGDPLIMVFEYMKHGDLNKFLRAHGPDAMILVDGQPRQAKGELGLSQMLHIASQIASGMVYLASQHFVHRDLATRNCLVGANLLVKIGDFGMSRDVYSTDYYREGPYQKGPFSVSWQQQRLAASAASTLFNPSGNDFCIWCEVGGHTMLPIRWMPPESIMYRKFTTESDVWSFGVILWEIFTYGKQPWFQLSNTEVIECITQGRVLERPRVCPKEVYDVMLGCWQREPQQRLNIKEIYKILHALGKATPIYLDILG

| Molecule | survival of embryonic rat trigeminal neuron cultures, EC50 [1] | trkC tyrosine phosphorylation, half maximum effective concentration (EC50) [2] | Kd [3] |
| --- | --- | --- | --- |
| NT3 (ligand) | 0.00073 nM | 1.09 nM |  |
| B1 |  |  | ~0.28 nM |
